US7667100B2, “Nucleic acid compositions conferring herbicide resistance” (Dow AgroSciences LLC, priority 2002, dated 2010)

Columns and labels:
[1] = tested on: Nicotiana benthamiana; test: Evaluation of auxin tolerance in greenhouse plants inoculated with clone transcript and sprayed with herbicide; format: in vivo; conditions: greenhouse; 30% or more of test population tolerant by 14 dat
Experimental: All primary hit sequences were evaluated for tolerance in larger plants, maintained under greenhouse conditions as described below.
Plant Growth and Maintenance. Nb seeds were sown in 6.5 cm pots filled with Redi-earth medium (The Scotts Company, Marysville, Ohio) pre-wetted by injection of Hoagland's fertilizer solution [all from the Scotts Company: 147 kg Peters Excel 15-15-15 Cal-Mag, 68 kg Peters Excel 15-0-0 Cal-Lite (15% Ca), and 45 kg Peters Excel 10-0-0 MagNitrate (10% Mg) in hot tap water to 596 L total volume] into irrigation water at a ratio of 200:1, using an injection system (H. E. Anderson, Muskogee Okla,). Seededpots were placed in the greenhouse for 1 day, transferred to a 27° C. germination chamber (Carolina Greenhouses, Kinston, N.C.) for 2 days, and then returned to the greenhouse. Shade curtains (33% transmittance) were used in the greenhouse to reduce solar intensity. To ensure 16 hour day length and supplement solar radiation on overcast days, artificial lighting consisting of a 1:1 mixture of metal halide and high pressure Sylvania sodium lamps was used, delivering approximately 220 μmol/m^2/s. Evaporative cooling and steam heat were used to maintain a daytime set point of 27° C. and a nighttime temperature of 22° C. At approximately 7 days post sowing (dps), seedlings were thinned to one seedling per pot and at 17 to 21 dps, the pots were spaced farther apart to accommodate plant growth. Plants were watered with Hoagland's solution as required. Following inoculation, waste irrigation water was collected and treated with 0.5% sodium hypochlorite for 10 minutes to neutralize any viral contamination before discharging into the municipal sewer.
Plant Inoculation. For each clone, 50 test plants as well as 10 GFP and bar (Thompson et al., EMBO J. 6:2519 [19870]) negative control plants were inoculated as follows: 2.0 mL of inoculum per clone were prepared by combining equal volumes of NCAP transcript and FES buffer [0.1 M glycine, 0.06 M K2HPO4, 1% sodium pyrophosphate, 1% diatomaceous earth (Sigma Chemical Company, St. Louis, Mo.), and either 1% silicon carbide (Aldrich Chemical Company, Milwaukee, Wis.), or 1% Bentonite (Sigma Chemical Company, St. Louis, Mo.)]. The inoculum was applied to each plant at 17 days post sowing by pipetting onto the upper surface of leaves 3 and 4 (˜20 μL per leaf). The inoculum was then spread across each leaf surface using a 3″ cotton tipped applicator (Calapro Swab, Fisher Scientific, Pittsburgh, Pa.) and a gloved finger to support the leaf. Following inoculation the plants were misted with deionized water.
Infection Scoring. At 8 days post inoculation (dpi), the plants were visually examined and a numerical score was assigned to each plant to indicate the extent of viral infection symptoms: 0=no infection, 1=possible infection, 2=infection symptoms limited to leaves <50-75% fully expanded, 3=typical systemic infection, 4=atypically severe infection, often accompanied by moderate to severe wilting and/or necrosis. Plants receiving an infection rating of 0, 1, or 4 were discarded.
Herbicide spraying. At 9 dpi, the well infected plants (infection score of 3, sometimes 2) were divided into 3 treatment groups. Group 1, to be sprayed with solvent only, contained 4 plants per test clone (2 plants per negative control) and Groups 2 and 3, to be treated with 13 or 40 g ae/ha, respectively, each consisted of 12 test plants per clone and 2 plants per negative control. […]

[2] = tested on: Nicotiana benthamiana; test: Cross-resistance testing against six auxin compounds (greenhouse); format: in vivo; conditions: for tolerance to picloram (Compound #5): 10 g ae/ha and 1/2x; for tolerance to positive control 4-amino-3,6-dichloropyridine-2-carboxylic acid (Compound #6): 10 g ae/ha and 1/2x (5 g ae/ha); for tolerance to dicamba (Compound #3): 64 g ae/ha and 1/2x; for tolerance to quinclorac (Compound #1): 200 g ae/ha and 1/2x; for extent of cross-resistance to the six auxin compounds: two trials, two doses per auxin, thresholds 25% or 35% injury or less
Excerpt: Six compounds, representing five classes of auxin chemistry, were selected for testing the extent of auxinic tolerance of five hit sequences (129965 (SEQ ID NO:10), 130213 (SEQ ID NO: 14), 130294 (SEQ ID NO:360), 130994 (SEQ ID NO:361), and 129870 (SEQ ID NO:359)). The compounds included the following: • 1) quinclorac (BASF Corp., Research Triangle, N.C.) • 2) (2,4-dichlorophenoxy) acetic acid (Dow AgroSciences, Indianapolis, Ind.) • 3) dicamba (Monsanto, St. Louis, Mo.) • 4) benazolin (AgrEvo USA Company, Wilmington, Del.) • 5) picloram (Dow AgroSciences, Indianapolis, Ind.) • 6) 4-amino-3,6-dichloropyridine-2-carboxylic acid (Dow AgroSciences, Indianapolis, Ind.) Compound #6 served as a positive control, as these five sequences were identified for their herbicide tolerant function using this auxin (see Example 9). Compound #1 represents the quinoline carboxylic acid chemical family, #2 is in the phenoxy carboxylic acid class, #3 is benzoic acid chemistry, #4 is unique to any currently defined class, and #5 is in the same family as the positive control, pyridine carboxylic acids.
The protocol was essentially the same as that described in Example 9 for greenhouse evaluations. However, an individual experiment consisted of 200 test plants plus 35 GFP and 35 bar negative control plants inoculated per clone. […] Two doses per auxin were tested, with as many as 12 well-infected test plants and 2 of each of the negative controls per dose.
The six auxin solutions were prepared by dissolving solid compound in General Purpose Solvent (GPS: 97%DMSO: 3% acetone) to achieve the following spray rates (g ae/ha) when using the spray applicator and parameters outlined in Example 9: Compound #1) 200; 2) 42; 3) 64; 4) 200; 5) 10; 6) 10. From each of these solutions, a portion was diluted with an equal volume of GPS, resulting in 1× (“high dose”) and ½× (“low dose”) concentrations for spraying. Before spray application, each auxin solution was mixed with an equal volume of diluent containing surfactants for effective penetration. The diluent was prepared as follows: 420 mL GPS, 460 mL DI water, 120 mL isopropyl alcohol, 10.167 mL Agri-Dex (Helena Chemical Co., Memphis, Tenn.), and 0.167 mL Triton X-155 (Sigma Chemical Co., St. Louis, Mo.). In addition to the 200 and 100 g ae/ha rates tested for Compound #4 (benazolin), a concentration of 250 g ae/ha was also formulated as described above and tested.
Plants were sprayed and evaluated as described in Example 9. FIG. 7 summarizes the sequences tested and the highest dose of the compounds against which tolerance was observed. […] Results are reported in FIG. 7 for each of the trials with each construct.
The positive control (Compound #6) was formulated differently in this set of evaluations from that described in Example 9, for consistency in the solvent/surfactant background from which to compare the activity of the individual sequences against each auxin. Thus, the spray rate used for evaluation was lower than previous experiments, 5 vs. 13 g ae/ha. The need to lower the dose with this formulation to prevent total chlorosis and/or necrosis was likely due to the addition of DMSO, Agri-Dex, and Triton X-155 which were not used in Example 9.

B1: 130994: Poppy cDNA clone; auxin tolerance hit sequence (nucleic acid)
DNA: GAATTCAATCAAATGGCTACTGCTAGAGTTTTAGCTGCTAGTATGTTGCATGAATGCAACAACACTCACAGTGCTTCATTTCTTTTGAGACAATCTTCTTTCATCTTACCTATTAAACATCAAAGTATTAATTTCAGTAGAAGAGCATCTTCTAGGAGAGCTTTTACTTGCAAATCTCTTTACAAACCTGAAATTCAAATCAAACAAGAAGGTGAACCTCAAACCCTAGATTACAGAGTCTTCTTTCATGATAAATCTGGCAAAAAGCTTTCACCTTGGCATGATGTACCATTGCAATTGGGTGATGGAGTGTTCAATTTTATCGTGGAAATACCAAAAGAGACAAGTGCAAAGATGGAAGTTGCAACTGATGAGCCATATACTCCCATTAAACAGGACACCAAGAAGGGAAAACTTAGATTCTACCCCTACAACATCAATTGGAACTATGGATTGCTCCCACAGACATGGGAAGACCCAACAGTAGCTAATTCTGAAGTTGAAGGGGCATTCGGAGATAATGATCCAGTTGATGTTGTTGAAATTGGGGAGAGGCAAGGAAAAATTGGCGAGATTCTTAAAGTCAAGCCTTTAGGTGCTTTGGCTATGATTGACGAAGGAGAACTCGACTGGAAAATTGTTGCGATTTCGTTGGATGACCCAAAAGCTTCACTCGTCAATGATGTTGGTGATGTTGAGAAACATTTCCCGGGCACTCTCACTGCTATAAGAGATTGGTTCAGAGACTACAAGATCCCAGATGGAAAGCCTGCCAATAAGTTTGGACTTGGGAACAAAGCAGCCAACAAGGATTATGCTCTGAAGGTAATAACTGAAACCAACGAAGCTTGGGCTAAACTTGTCAAGAGAACTGTTCCTGCTGGGGAGCTCTCCCTTCTGTAAATTTTGAATTTTTAAAAGTTGAAGATAAGAGGCACTTTGGCCCGCTCCTATCCCCCTCCTCTCTCTATTGTTTTCTTTCATGCTGGATTCCAAACAAACTTCCTCCAATTTTTTGGACGAAGTATTGATAATTTCTAATCATTGAGCTCCATTTTTCAAAAAAAAAAAA
modifications: Poppy
- reproducibility of auxin tolerance from Trial #1 to Trial #2 [1]: reproducible auxin tolerance
- tolerance to picloram (Compound #5) [2]: demonstrated tolerance to each of the three compounds using the 35% injury threshold
- tolerance to positive control 4-amino-3,6-dichloropyridine-2-carboxylic acid (Compound #6) [2]: tolerance consistently occurred at the lower threshold (25% injury or less)
- tolerance to dicamba (Compound #3) [2]: demonstrated tolerance to each of the three compounds using the 35% injury threshold
- tolerance to quinclorac (Compound #1) [2]: demonstrated tolerance to each of the three compounds using the 35% injury threshold
- extent of cross-resistance to the six auxin compounds [2]: tolerance was observed against four compounds

B2: 129870: Poppy cDNA clone; auxin tolerance hit sequence (nucleic acid)
DNA: TTAATTAAGTCGACGAATTCAAATTAGGTCTAAAGATGGCGTCTTTAGCTCAACAATTCTCAGGATTAAGATGCCCACCACTTTCTTCTTCTCATCTAACAAAACCCTTTTCTTCAAAACCCCAGAAAACCACCTTTTCACCTATAGTTTCAGCAGCTGTCATTTCTAATGCACAAACTAAAGAAAGAAGTAGACTTAAAGAAATCTTCGAAGATGCTTATGAAAGATGTAGAACTACTCCAATGCAAGGTGTTGGTTTTACTGTTGATGATTTTCATGCTGCTCTTGAAAAGTATGATTACAATTCTGAGATTGGTACCAGGGTTAAAGGAACTGTGTTCTGTACAGACAACAACGGAGCATTAGTTGACATCACGGCGAAATCTTCAGCCTATTTACCAATCCAAGAGGCATGTATTCACAAAATAAAGCATGTAGAAGAAGCAGGAATAGTTGCAGGCCTACGTGAAGAGTTTGTGATTATTGGAGAGAACCAAGCTGATGATAGCTTGATCTTGAGTTTGCGTTCAATCCAATTTGACCTCGCATGGGAACGGTGTAGACAACTTCAGGCAGAGGATGTCGTCCTCAAGGGTAAGGTTGTTGGTGGAAACAAAGGCGGTGTGGTGGCAATTGTCGAAGGCCTTCGTGGTTTTATTCCATTCTCACAAATATCTTCAAAATCAACCGCGGAAGATCTCATTGATAAGGAGCTTCCTCTGAAATTTGTGGAAGTTGATGAGGAGCAGTCTAGACTTGTCCTCAGTAATCGCAAGGCCATGGCAGACAGCCAGGCACAGCTTGGTATTGGATCAGTTGTCACTGGAACAGTACAGAGTCTTAAGCCATATGGCGCTTTCATCGACATTGGTGGAATCAATGGTCTTCTTCATGTTAGTCAAATTAGTCATGATCGTGTCTCGGATATTGCAACAGTTCTTCAACCCGGCGACACTCTAAAGGTGATGATATTGAGCCACGACCGTGAGAGAGGCCGAGTCAGTCTATCCACCAAAAAGCTAGAGCCTACTCCAGGAGATATGATCCGTAACCCCAAGCTTGTTTTCGAGAAGGCTGAAGAAATGGCTCAGACATTCAGGCAGAGAATAGCTCAAGCAGAAGCTATGGCCCGTGCGGACATGCTGAGATTCCAACCCGAGAGTGGATTGACTCTAAGCTCAGACGGCATCTTAGGTCCCCTGACGCCAGACTTGCCTGCTGAAGGTCTAGATTTGAGCGACATTCCTGCAGCTGATGATGCATAGAAACCAATAAATATGAATTAAATCTGTCTTGACGTTTCTTCTCATCACCATTTTTAGGCTATGTAAGATGGGTCTATAGGTTGTTCAAAGTGTTGACTTGTGTATTTATCTTGATAGTTCAAAGTGTACTTCTTTAAGCGATAATCATTGAAAAGAAAAAATGGAGAAGGTAAAAGATAAAAATATCCAAAAAAAAAAAAAAAAAAAAAAAA
modifications: Poppy
- reproducibility of auxin tolerance from Trial #1 to Trial #2 [1]: reproducible auxin tolerance
- tolerance to picloram (Compound #5) [2]: demonstrated tolerance to each of the three compounds using the 35% injury threshold
- tolerance to positive control 4-amino-3,6-dichloropyridine-2-carboxylic acid (Compound #6) [2]: tolerance consistently occurred at the lower threshold (25% injury or less)
- tolerance to dicamba (Compound #3) [2]: demonstrated tolerance to each of the three compounds using the 35% injury threshold
- tolerance to quinclorac (Compound #1) [2]: demonstrated tolerance to each of the three compounds using the 35% injury threshold
- extent of cross-resistance to the six auxin compounds [2]: tolerance was observed against four compounds
